B1: Ras-related GTP-binding protein D (Homo sapiens), Q9NQL2 (parent)
chain: MSQVLGKPQPQDEDDAEEEEEEDELVGLADYGDGPDSSDADPDSGTEEGVLDFSDPFSTEVKPRILLMGLRRSGKSSIQKVVFHKMSPNETLFLESTNKICREDVSNSSFVNFQIWDFPGQIDFFDPTFDYEMIFRGTGALIFVIDSQDDYMEALARLHLTVTRAYKVNTDINFEVFIHKVDGLSDDHKIETQRDIHQRANDDLADAGLEKIHLSFYLTSIYDHSIFEAFSKVVQKLIPQLPTLENLLNIFISNSGIEKAFLFDVVSKIYIATDSTPVDMQTYELCCDMIDVVIDISCIYGLKEDGAGTPYDKESTAIIKLNNTTVLYLKEVTKFLALVCFVREESFERKGLIDYNFHCFRKAIHEVFEVRMKVVKSRKVQNRLQKKKRATPNGTPRVLL

Variants of: B1
Conditions: with sylc_human LARS1, Q9P2J5
Sequence of sylc_human LARS1, Q9P2J5 (Q9P2J5 whole entry, looked up): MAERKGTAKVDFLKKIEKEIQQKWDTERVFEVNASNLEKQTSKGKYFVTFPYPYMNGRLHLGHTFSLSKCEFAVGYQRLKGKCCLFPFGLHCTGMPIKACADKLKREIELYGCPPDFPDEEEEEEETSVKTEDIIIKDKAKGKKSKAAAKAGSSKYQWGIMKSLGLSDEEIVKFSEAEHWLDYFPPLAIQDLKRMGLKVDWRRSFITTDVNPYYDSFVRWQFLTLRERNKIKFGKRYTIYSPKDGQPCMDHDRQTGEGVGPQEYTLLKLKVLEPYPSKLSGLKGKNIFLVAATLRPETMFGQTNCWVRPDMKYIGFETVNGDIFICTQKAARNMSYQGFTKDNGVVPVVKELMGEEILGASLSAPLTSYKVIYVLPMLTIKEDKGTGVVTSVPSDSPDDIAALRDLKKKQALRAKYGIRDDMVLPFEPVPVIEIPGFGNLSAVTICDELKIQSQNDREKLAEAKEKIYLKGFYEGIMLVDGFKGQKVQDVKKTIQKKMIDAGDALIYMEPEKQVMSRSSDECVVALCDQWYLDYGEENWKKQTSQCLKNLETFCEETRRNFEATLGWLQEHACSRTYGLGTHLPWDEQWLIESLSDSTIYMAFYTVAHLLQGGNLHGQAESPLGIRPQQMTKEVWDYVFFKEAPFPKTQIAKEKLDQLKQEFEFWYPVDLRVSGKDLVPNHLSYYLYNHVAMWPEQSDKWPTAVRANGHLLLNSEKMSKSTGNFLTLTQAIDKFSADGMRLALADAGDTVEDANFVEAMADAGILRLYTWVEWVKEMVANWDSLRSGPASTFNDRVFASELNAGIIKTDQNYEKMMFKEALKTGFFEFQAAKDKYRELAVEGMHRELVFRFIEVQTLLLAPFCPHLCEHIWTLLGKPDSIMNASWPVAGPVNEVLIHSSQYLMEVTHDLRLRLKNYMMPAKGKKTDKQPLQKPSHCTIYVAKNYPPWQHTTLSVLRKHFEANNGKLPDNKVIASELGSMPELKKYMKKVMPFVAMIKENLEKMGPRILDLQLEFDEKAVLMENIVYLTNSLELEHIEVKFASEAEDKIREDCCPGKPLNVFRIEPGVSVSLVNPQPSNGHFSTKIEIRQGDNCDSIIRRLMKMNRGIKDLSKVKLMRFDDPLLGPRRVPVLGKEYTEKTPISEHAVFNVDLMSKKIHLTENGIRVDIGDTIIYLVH

Row | effect of a mutation on the interaction | Variant
1 | decreasing interaction strength | S77L
2 | increasing interaction strength | Q121L

— IntAct's records for PubMed 22424946
